In PMC6355029, “Structure of the DP1–DP2 PolD complex bound with DNA and its implications for the evolutionary history of DNA and RNA polymerases”:
One block for each molecule: values may come before it.

What was measured:
[1] = target: Pyrococcus abyssi PolD DP1 subunit, exonuclease-deficient variant H451A, full length (Pyrococcus abyssi) (UniProt Q9V2F3); experiment: AUC; sedimentation velocity of the copurified PolD complex at 0.2, 0.5 and 1 mg/ml, 42,000 rpm, 20°C; continuous c(s) distribution (Sedfit); sediments at 8 S, frictional ratio 1.4
[2] = target: T1, PolD DP1 H451A (exonuclease-deficient small subunit);PolD DP2 (large catalytic subunit) (Pyrococcus abyssi;Pyrococcus abyssi, UniProt Q9V2F3;Q9V2F4;Q9V2F4 1-619;1-954;1140-1455, H451A|); experiment: cryo-EM structure; Zn2+ and Fe3+ in protein; no nucleotide; Fluorescence anisotropy: 20 mM sodium succinate pH 6, 100 mM NaCl, 25 C, 5 nM HEX-DNA, PolD up to 600 nM, DP2(1-1061) up to 6 uM; conditions: protein: recombinant;recombinant; tags: N-terminal 14xHis, TEV-cleaved;; copies: 1;1;1; 15 bp duplex, 5' overhang 5 nt on template
[3] = target: T1, PolD DP1 H451A (exonuclease-deficient …); experiment: fluorescence anisotropy; Fluorescence anisotropy: 20 mM sodium succinate pH 6, 100 mM NaCl, 25 C, 5 nM HEX-DNA, PolD up to 600 nM, DP2(1-1061) up to 6 uM; conditions: protein: recombinant;recombinant; tags: N-terminal 14xHis, TEV-cleaved;; copies: 1;1;1; 3'-HEX in assay text; 18 bp duplex, 5' overhang 7 nt on template
[4] = target: T1, PolD DP1 H451A (exonuclease-deficient …); experiment: as above; conditions: protein: recombinant;recombinant; tags: N-terminal 14xHis, TEV-cleaved;; copies: 1;1;1; 3'-HEX in assay text; blunt, 25 bp

T1 sequence (Q9V2F3 whole entry H451A, chain 1 of 3): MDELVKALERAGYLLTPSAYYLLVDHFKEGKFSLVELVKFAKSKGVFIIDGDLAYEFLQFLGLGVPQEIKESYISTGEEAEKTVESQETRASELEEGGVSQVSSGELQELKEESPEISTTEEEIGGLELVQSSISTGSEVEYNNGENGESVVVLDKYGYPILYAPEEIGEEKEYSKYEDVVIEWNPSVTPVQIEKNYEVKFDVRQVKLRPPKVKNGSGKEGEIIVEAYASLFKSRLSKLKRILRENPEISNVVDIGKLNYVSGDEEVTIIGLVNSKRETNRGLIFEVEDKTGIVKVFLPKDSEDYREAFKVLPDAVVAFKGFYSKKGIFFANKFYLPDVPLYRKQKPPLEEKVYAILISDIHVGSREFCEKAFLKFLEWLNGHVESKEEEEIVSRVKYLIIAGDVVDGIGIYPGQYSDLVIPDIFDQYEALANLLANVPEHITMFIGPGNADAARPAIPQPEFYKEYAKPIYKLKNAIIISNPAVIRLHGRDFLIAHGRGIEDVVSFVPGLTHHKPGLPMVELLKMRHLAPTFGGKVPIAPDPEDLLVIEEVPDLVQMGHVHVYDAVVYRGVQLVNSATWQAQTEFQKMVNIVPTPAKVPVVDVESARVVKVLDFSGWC
T1 sequence (Q9V2F4 1-954, chain 2 of 3): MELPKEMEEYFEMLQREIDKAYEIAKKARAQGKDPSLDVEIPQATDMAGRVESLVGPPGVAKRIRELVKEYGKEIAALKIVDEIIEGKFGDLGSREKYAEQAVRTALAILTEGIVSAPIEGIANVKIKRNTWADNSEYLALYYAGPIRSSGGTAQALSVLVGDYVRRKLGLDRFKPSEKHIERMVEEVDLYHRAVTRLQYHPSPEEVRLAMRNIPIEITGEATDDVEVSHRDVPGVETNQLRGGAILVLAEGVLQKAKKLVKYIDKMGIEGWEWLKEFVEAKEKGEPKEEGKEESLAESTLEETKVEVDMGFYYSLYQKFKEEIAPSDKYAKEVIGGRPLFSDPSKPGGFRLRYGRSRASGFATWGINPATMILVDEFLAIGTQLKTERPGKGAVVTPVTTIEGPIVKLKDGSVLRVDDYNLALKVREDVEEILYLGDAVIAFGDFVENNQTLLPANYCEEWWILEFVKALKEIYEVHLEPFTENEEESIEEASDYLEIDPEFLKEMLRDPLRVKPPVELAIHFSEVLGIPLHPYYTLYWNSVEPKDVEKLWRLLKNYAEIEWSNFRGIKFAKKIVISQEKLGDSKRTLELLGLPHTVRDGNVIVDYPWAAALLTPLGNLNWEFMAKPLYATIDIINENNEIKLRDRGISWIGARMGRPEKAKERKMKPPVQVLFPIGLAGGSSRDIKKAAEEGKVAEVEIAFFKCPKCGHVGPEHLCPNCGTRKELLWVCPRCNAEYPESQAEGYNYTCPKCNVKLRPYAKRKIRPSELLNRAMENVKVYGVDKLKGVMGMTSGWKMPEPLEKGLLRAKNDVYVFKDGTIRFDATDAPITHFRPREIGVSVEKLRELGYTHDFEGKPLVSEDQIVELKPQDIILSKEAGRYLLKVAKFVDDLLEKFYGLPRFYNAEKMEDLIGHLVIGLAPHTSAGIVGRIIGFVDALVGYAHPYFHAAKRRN
T1 sequence (Q9V2F4 1140-1455, chain 3 of 3): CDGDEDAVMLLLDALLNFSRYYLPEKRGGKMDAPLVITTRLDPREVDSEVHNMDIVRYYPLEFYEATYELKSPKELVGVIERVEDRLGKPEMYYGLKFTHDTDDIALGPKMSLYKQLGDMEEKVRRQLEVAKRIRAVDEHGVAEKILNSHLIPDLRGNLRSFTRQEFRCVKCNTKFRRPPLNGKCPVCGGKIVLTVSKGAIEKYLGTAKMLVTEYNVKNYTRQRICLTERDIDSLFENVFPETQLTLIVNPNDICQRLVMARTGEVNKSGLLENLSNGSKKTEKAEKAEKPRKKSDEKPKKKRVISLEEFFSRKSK
Pyrococcus abyssi PolD DP1 subunit, exonuclease-deficient variant H451A, full length (Pyrococcus abyssi), sequence (Q9V2F3 whole entry H451A): as the sequence (Q9V2F3 whole entry H451A, chain 1 of 3) above

stoichiometry N [1]: 1
Molecule: Pyrococcus abyssi PolD DP2 subunit, full length (from UniProt Q9V2F4 1-1455) (enzyme)

B1: cryo-EM primer/template (dsDNA)
DNA 1: GAGACGGGCCGCGTC
DNA 2: ACTTTGACGCGGCCCGTCTC
binding result [2]: binds

B2: HEX primer/template (dsDNA)
DNA 1: CGCCGGGCCGAGCCGTGC
DNA 2: AGGTCGTGCACGGCTCGGCCCGGCG
Kd [3]: 15 nM

B3: HEX dsDNA (dsDNA)
DNA 1: CGCCGGGCCGAGCCGTGCACGACCT
DNA 2: AGGTCGTGCACGGCTCGGCCCGGCG
binding signal [4]: 6.5 fold weaker Kd than primer-template
